Experimental data as given in patent US20240124575A1.
Read-outs that look alike come from different tables or passages of the source.

Columns and labels:
[1] = target: human CD33 on CHO-K1 cells (CHO-K1-human CD33) (human) (UniProt P20138); assay: FACS, CHO-K1-human CD33 cells
[2] = target: human CD33 on U937 cells (endogenous) (human) (UniProt P20138); assay: FACS, U937 cells
[3] = target: human CD33-His (extracellular domain Asp 18-His 259) (human) (UniProt P20138); assay: ELISA, antigen coated
[4] = target: human CD33 on CHO-K1 cells (CHO-K1-human CD33) (human) (UniProt P20138); assay: FACS, CHO-K1-human CD33 cells; remark: listed apart in the source
[5] = target: human CD33 on U937 cells (endogenous) (human) (UniProt P20138); assay: FACS, U937 cells; remark: listed apart in the source
[6] = target: murine CD33-His protein (murine) (UniProt Q63994); assay: ELISA, antigen coated
[7] = target: human CD33-V-his (human) (UniProt P20138); assay: ELISA, antigen coated
[8] = target: human CD33-C2-his (human) (UniProt P20138); assay: ELISA, antigen coated
[9] = target: human CD33-His (extracellular domain Asp 18-His 259) (human) (UniProt P20138); assay: ELISA, antigen coated; remark: listed apart in the source
[10] = target: human CD33-His (extracellular domain Asp 18-His 259) (human) (UniProt P20138); assay: ELISA, antigen coated; remark: listed apart in the source
[11] = target: human CD33-his protein (human) (UniProt P20138); assay: competition ELISA, coated human CD33-his, vs Biotin-C33B904 at EC80; antibody 15.63 nM
[12] = target: human CD33-his protein (human) (UniProt P20138); assay: competition ELISA, coated human CD33-his, vs Biotin-C33B904 at EC80; antibody 3.91 nM
[13] = target: human CD33-his protein (human) (UniProt P20138); assay: competition ELISA, coated human CD33-his, vs Biotin-C33B904 at EC80; antibody 31.25 nM
[14] = target: human CD33-his protein (human) (UniProt P20138); assay: competition ELISA, coated human CD33-his, vs Biotin-C33B904 at EC80; antibody 62.50 nM
[15] = target: human CD33-his protein (human) (UniProt P20138); assay: competition ELISA, coated human CD33-his, vs Biotin-C33B904 at EC80; antibody 0.49 nM
[16] = target: human CD33-his protein (human) (UniProt P20138); assay: competition ELISA, coated human CD33-his, vs Biotin-C33B904 at EC80; antibody 31.25 nM; remark: listed apart in the source
[17] = target: human CD33-his protein (human) (UniProt P20138); assay: competition ELISA, coated human CD33-his, vs Biotin-C33B904 at EC80; antibody 125.00 nM
[18] = target: human CD33-his protein (human) (UniProt P20138); assay: competition ELISA, coated human CD33-his, vs Biotin-C33B904 at EC80; antibody 62.50 nM; remark: listed apart in the source
[19] = target: human CD33-his protein (human) (UniProt P20138); assay: competition ELISA, coated human CD33-his, vs Biotin-C33B904 at EC80; antibody 15.63 nM; remark: listed apart in the source
[20] = target: human CD33-his protein (human) (UniProt P20138); assay: competition ELISA, coated human CD33-his, vs Biotin-C33B904 at EC80; antibody 7.81 nM
[21] = target: human CD33-his protein (human) (UniProt P20138); assay: competition ELISA, coated human CD33-his, vs Biotin-C33B904 at EC80; antibody 500 nM
[22] = target: human CD33-his protein (human) (UniProt P20138); assay: competition ELISA, coated human CD33-his, vs Biotin-C33B904 at EC80; antibody 0.98 nM
[23] = target: human CD33-his protein (human) (UniProt P20138); assay: competition ELISA, coated human CD33-his, vs Biotin-C33B904 at EC80; antibody 125.00 nM; remark: listed apart in the source
[24] = target: human CD33-his protein (human) (UniProt P20138); assay: competition ELISA, coated human CD33-his, vs Biotin-C33B904 at EC80; antibody 250.00 nM
[25] = target: human CD33-his protein (human) (UniProt P20138); assay: competition ELISA, coated human CD33-his, vs Biotin-C33B904 at EC80; antibody 0 nM (no competitor)
[26] = target: human CD33-his protein (human) (UniProt P20138); assay: competition ELISA, coated human CD33-his, vs Biotin-C33B904 at EC80; antibody 500 nM; remark: listed apart in the source
[27] = target: human CD33-his protein (human) (UniProt P20138); assay: competition ELISA, coated human CD33-his, vs Biotin-C33B904 at EC80; antibody 250.00 nM; remark: listed apart in the source
[28] = target: human CD33-his protein (human) (UniProt P20138); assay: competition ELISA, coated human CD33-his, vs Biotin-C33B904 at EC80; antibody 1.95 nM
[29] = target: human CD33-his protein (human) (UniProt P20138); assay: competition ELISA, coated human CD33-his, vs Biotin-C33B904 at EC80; antibody 0 nM (no competitor); remark: listed apart in the source
[30] = target: human CD33-his protein (human) (UniProt P20138); assay: competition ELISA, coated human CD33-his, vs Biotin-C33B904 at EC80; antibody 0.49 nM; remark: listed apart in the source
[31] = target: human CD33-his protein (human) (UniProt P20138); assay: competition ELISA, coated human CD33-his, vs Biotin-C33B904 at EC80; antibody 7.81 nM; remark: listed apart in the source
[32] = target: human CD33-his protein (human) (UniProt P20138); assay: competition ELISA, coated human CD33-his, vs Biotin-C33B904 at EC80; antibody 3.91 nM; remark: listed apart in the source
[33] = target: human CD33-his protein (human) (UniProt P20138); assay: competition ELISA, coated human CD33-his, vs Biotin-C33B904 at EC80; antibody 1.95 nM; remark: listed apart in the source
[34] = target: human CD33-his protein (human) (UniProt P20138); assay: competition ELISA, coated human CD33-his, vs Biotin-C33B904 at EC80; antibody 0.98 nM; remark: listed apart in the source

Chain of murine CD33-His protein (murine) (Q63994 18-240 limits assumed): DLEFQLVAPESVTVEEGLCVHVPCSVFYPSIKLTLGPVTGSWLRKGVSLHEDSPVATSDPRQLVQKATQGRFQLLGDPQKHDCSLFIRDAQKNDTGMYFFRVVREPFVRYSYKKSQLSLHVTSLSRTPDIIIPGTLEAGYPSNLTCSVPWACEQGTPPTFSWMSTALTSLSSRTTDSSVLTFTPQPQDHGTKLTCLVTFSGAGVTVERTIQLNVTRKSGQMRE
Chain of human CD33-C2-his (human) (P20138 other isoform, or with tags, fused parts or gaps limits assumed): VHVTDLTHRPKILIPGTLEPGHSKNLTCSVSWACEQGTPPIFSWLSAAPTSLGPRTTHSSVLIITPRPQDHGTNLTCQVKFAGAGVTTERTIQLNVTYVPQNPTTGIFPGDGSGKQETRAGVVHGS
Chain of human CD33-his protein (human) (P20138 18-259 limits assumed): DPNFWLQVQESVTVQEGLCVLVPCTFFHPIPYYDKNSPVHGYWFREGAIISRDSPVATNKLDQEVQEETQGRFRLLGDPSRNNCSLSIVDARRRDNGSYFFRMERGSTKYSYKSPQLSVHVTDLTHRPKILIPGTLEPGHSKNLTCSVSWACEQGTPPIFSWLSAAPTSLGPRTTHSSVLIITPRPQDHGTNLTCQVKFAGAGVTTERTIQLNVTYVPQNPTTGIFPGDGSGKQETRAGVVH
Chain of human CD33-His (extracellular domain Asp 18-His 259) (human) (P20138 18-259 limits assumed): as above
Chain of human CD33-V-his (human) (P20138 other isoform, or with tags, fused parts or gaps limits assumed): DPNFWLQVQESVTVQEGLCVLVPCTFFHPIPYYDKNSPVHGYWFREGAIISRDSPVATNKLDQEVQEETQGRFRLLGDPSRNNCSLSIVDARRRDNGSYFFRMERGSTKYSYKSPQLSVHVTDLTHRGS
Chain of human CD33 on CHO-K1 cells (CHO-K1-human CD33) (human) (P20138 18-364): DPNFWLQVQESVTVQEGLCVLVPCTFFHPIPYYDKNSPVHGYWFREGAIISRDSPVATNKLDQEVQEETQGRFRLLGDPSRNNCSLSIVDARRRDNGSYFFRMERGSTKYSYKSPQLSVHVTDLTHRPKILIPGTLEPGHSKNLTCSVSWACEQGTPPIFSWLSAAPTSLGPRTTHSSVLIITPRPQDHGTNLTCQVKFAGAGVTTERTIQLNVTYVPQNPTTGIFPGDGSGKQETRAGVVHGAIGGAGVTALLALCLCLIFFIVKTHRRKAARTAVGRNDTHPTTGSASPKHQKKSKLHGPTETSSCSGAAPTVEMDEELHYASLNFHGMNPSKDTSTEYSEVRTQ
Chain of human CD33 on U937 cells (endogenous) (human) (P20138 18-364): as above

**Q.** For “anti-hel-hIgG1 antibody against hen egg lysozyme”, which Max MFI [1] is on record?
**A.** 389 MFI

**Q.** And the Max MFI [2]?
**A.** 84 MFI

**Q.** And the OD450 at 0.0001 nM [3]?
**A.** 0.05 OD450

**Q.** And the OD450 at 0.001 nM [3]?
**A.** 0.06 OD450

**Q.** And the OD450 at 0.01 nM [3]?
**A.** 0.06 OD450

**Q.** And the OD450 at 0.1 nM [3]?
**A.** 0.05 OD450

**Q.** What about the OD450 at 1 nM [3] of the same substance?
**A.** 0.05 OD450

**Q.** And the OD450 at 10 nM [3]?
**A.** 0.05 OD450

**Q.** What about the OD450 at 100 nM [3] of the same substance?
**A.** 0.05 OD450

**Q.** And the Max MFI [4]?
**A.** 140 MFI

**Q.** What about the Max MFI [5] of the same substance?
**A.** 162 MFI

**Q.** And the OD450 at 0.0001 nM [6]?
**A.** 0.05 OD450

**Q.** And the OD450 at 0.001 nM [6]?
**A.** 0.06 OD450

**Q.** And the OD450 at 0.01 nM [6]?
**A.** 0.06 OD450

**Q.** What about the OD450 at 0.1 nM [6] of the same substance?
**A.** 0.06 OD450

**Q.** And the OD450 at 1 nM [6]?
**A.** 0.06 OD450

**Q.** And the OD450 at 10 nM [6]?
**A.** 0.06 OD450

**Q.** What about the OD450 at 100 nM [6] of the same substance?
**A.** 0.06 OD450

**Q.** And the OD450 at 0.0001 nM [7]?
**A.** 0.23 OD450

**Q.** And the OD450 at 0.001 nM [7]?
**A.** 0.33 OD450

**Q.** And the OD450 at 0.01 nM [7]?
**A.** 0.2 OD450

**Q.** What about the OD450 at 0.1 nM [7] of the same substance?
**A.** 0.23 OD450

**Q.** What about the OD450 at 1 nM [7] of the same substance?
**A.** 0.22 OD450

**Q.** What about the OD450 at 10 nM [7] of the same substance?
**A.** 0.22 OD450

**Q.** And the OD450 at 100 nM [7]?
**A.** 0.31 OD450

**Q.** What about the OD450 at 0.0001 nM [8] of the same substance?
**A.** 0.26 OD450

**Q.** And the OD450 at 0.001 nM [8]?
**A.** 0.25 OD450

**Q.** And the OD450 at 0.01 nM [8]?
**A.** 0.24 OD450

**Q.** What about the OD450 at 0.1 nM [8] of the same substance?
**A.** 0.27 OD450

**Q.** What about the OD450 at 1 nM [8] of the same substance?
**A.** 0.23 OD450

**Q.** What about the OD450 at 10 nM [8] of the same substance?
**A.** 0.24 OD450

**Q.** And the OD450 at 100 nM [8]?
**A.** 0.3 OD450

**Q.** And the OD450 at 0.0001 nM [9]?
**A.** 0.06 OD450

**Q.** What about the OD450 at 0.01 nM [9] of the same substance?
**A.** 0.05 OD450

**Q.** What about the OD450 at 0.1 nM [9] of the same substance?
**A.** 0.06 OD450

**Q.** What about the OD450 at 1 nM [9] of the same substance?
**A.** 0.06 OD450

**Q.** And the OD450 at 10 nM [9]?
**A.** 0.08 OD450

**Q.** And the OD450 at 100 nM [9]?
**A.** 0.1 OD450

**Q.** And the OD450 at 0.0001 nM [10]?
**A.** 0.04 OD450

**Q.** And the OD450 at 0.001 nM [10]?
**A.** 0.04 OD450

**Q.** What about the OD450 at 0.01 nM [10] of the same substance?
**A.** 0.04 OD450

**Q.** What about the OD450 at 0.1 nM [10] of the same substance?
**A.** 0.03 OD450

**Q.** What about the OD450 at 1 nM [10] of the same substance?
**A.** 0.03 OD450

**Q.** And the OD450 at 10 nM [10]?
**A.** 0.04 OD450

**Q.** And the OD450 at 100 nM [10]?
**A.** 0.06 OD450

**Q.** How did the OD450 (Biotin-C33B904 signal) [11] turn out when “hIgG1 (anti-hel-hIgG1 antibody against hen egg lysozyme)” was run?
**A.** 2.35

**Q.** And the OD450 (Biotin-C33B904 signal) [12]?
**A.** 2.3

**Q.** And the OD450 (Biotin-C33B904 signal) [13]?
**A.** 2.38

**Q.** And the OD450 (Biotin-C33B904 signal) [14]?
**A.** 2.17

**Q.** What about the OD450 (Biotin-C33B904 signal) [15] of the same substance?
**A.** 2.13

**Q.** And the OD450 (Biotin-C33B904 signal) [16]?
**A.** 2.21

**Q.** And the OD450 (Biotin-C33B904 signal) [17]?
**A.** 2.34

**Q.** And the OD450 (Biotin-C33B904 signal) [18]?
**A.** 2.35

**Q.** What about the OD450 (Biotin-C33B904 signal) [19] of the same substance?
**A.** 2.3

**Q.** And the OD450 (Biotin-C33B904 signal) [20]?
**A.** 2.17

**Q.** And the OD450 (Biotin-C33B904 signal) [21]?
**A.** 2.46

**Q.** What about the OD450 (Biotin-C33B904 signal) [22] of the same substance?
**A.** 2.27

**Q.** What about the OD450 (Biotin-C33B904 signal) [23] of the same substance?
**A.** 2.17

**Q.** What about the OD450 (Biotin-C33B904 signal) [24] of the same substance?
**A.** 2.16

**Q.** And the OD450 (Biotin-C33B904 signal) [25]?
**A.** 2.24

**Q.** What about the OD450 (Biotin-C33B904 signal) [26] of the same substance?
**A.** 2.34

**Q.** What about the OD450 (Biotin-C33B904 signal) [27] of the same substance?
**A.** 2.35

**Q.** What about the OD450 (Biotin-C33B904 signal) [28] of the same substance?
**A.** 2.21

**Q.** What about the OD450 (Biotin-C33B904 signal) [29] of the same substance?
**A.** 2.26

**Q.** And the OD450 (Biotin-C33B904 signal) [30]?
**A.** 2.22

**Q.** What about the OD450 (Biotin-C33B904 signal) [31] of the same substance?
**A.** 2.33

**Q.** And the OD450 (Biotin-C33B904 signal) [32]?
**A.** 2.19

**Q.** What about the OD450 (Biotin-C33B904 signal) [33] of the same substance?
**A.** 2.3

**Q.** What about the OD450 (Biotin-C33B904 signal) [34] of the same substance?
**A.** 2.08
